B1: antibody A7 (L7H7) (antibody, V domains shown)
VH: QVQLVESGGGVVQPGRSLRLSCAASGFTLSSFGMHWVRQAPGKGLEWVAVIWYDGSNKYYADSVKGRFIISRDNSKTALYLQMNSLRAEDTAVYYCARAHYFGAFDIWGQGTMVTVSS
VL: not shown
notes: also called aCTLA-4.3; CTLA4.A7
B2: antibody A2 (L2H2) (antibody, V domains shown)
VH: QVQLVESGGGVVQPGRSLRLSCAASGFTFSNYGMNWVRQAPGKGLEWVAVIWYDGRNKHYADSVKGRFTISRDNSKNTLYLQMNSLRAEDTAVYYCARGGDWGPYFDYWGQGTLVTVSS
VL: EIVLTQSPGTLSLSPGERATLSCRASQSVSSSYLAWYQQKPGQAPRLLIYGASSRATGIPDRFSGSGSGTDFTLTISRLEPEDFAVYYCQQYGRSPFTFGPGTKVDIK
notes: also called aCTLA-4.4; CTLA4.A2
B3: antibody A5 (L5H5) (antibody, V domains shown)
VH: QVQLVESGGGVVQPGRSLRLSCAASGFTFSSYGMHWVRQAPGKGLEWVAVIWYDGNNKYYADSVKGRFTISRDNSKNTLYLQMYSLRAEDTAVYYCARGGILAAGIFDYWGQGTLVTVSS
VL: EIVLTQSPGTLSLSPGDRATLSCRASQSGSSSYLAWYQQKPGQAPRLLIYGASSRATGIPDRFSGSGSGTDFTLTISRLEPEDFAVYYCQQYGTSPFTSGPGTKVDIK
notes: also called aCTLA-4.28; CTLA4.A5

These binders were tested against T1, His-tagged human CTLA-4 (CT4-H5229; Acro Biosystems) (human, UniProt P16410 36-161) (assay: SPR (Carterra), soluble human CTLA-4).
T1 construct: bought soluble protein; also called soluble human CTLA-4; recombinant human CTLA-4; not shown: His tag
T1 sequence (P16410 36-161 limits assumed): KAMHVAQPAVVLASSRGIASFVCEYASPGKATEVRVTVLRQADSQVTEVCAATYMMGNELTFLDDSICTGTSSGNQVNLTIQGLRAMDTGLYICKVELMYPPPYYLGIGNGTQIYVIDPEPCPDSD

Kd	koff	kon	Binder
5.7 nM	0.00036 s⁻¹	64000 M⁻¹ s⁻¹	B1
5.1 nM	0.00052 s⁻¹	100000 M⁻¹ s⁻¹	B2
4.6 nM	0.00042 s⁻¹	90000 M⁻¹ s⁻¹	B3

These binders were tested against T2, human CTLA-4 expressed on the cell surface (human, UniProt P16410 36-223) (assay: cell-based or functional assay).
T2 sequence (P16410 36-223 limits assumed): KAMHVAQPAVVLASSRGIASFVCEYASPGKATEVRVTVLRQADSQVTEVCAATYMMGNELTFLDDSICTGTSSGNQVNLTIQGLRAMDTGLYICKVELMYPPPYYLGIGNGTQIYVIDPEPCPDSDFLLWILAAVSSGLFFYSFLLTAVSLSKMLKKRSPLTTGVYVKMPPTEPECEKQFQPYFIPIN

Promega assay % inhibition	Promega assay antagonist (EC50, ug/mL)	Binder
11.5%	0.17 µg/mL	B1
75.4%	0.12 µg/mL	B2
100%	0.18 µg/mL	B3

Target: T2, human CTLA-4 expressed on the cell …
Experiment: cell-based or functional assay
Remark: another data set of the same source

Cell-based blocking activity EC50	Cell-based blocking activity max signal (RLU)	Binder
0.17 µg/mL	63 RLU	B1
0.12 µg/mL	413 RLU	B2
0.18 µg/mL	548 RLU	B3

What follows are binders tested against T3, CD27 on CHO cells (UniProt P26842 20-260, limits assumed) (assay: flow cytometry, mixed CTLA-4+ and CD27+ CHO cells).
T3 construct: whole, on cells; also called CD27+ CHO cells; irrelevant antigen (CD27)
T3 sequence (P26842 20-260 limits assumed): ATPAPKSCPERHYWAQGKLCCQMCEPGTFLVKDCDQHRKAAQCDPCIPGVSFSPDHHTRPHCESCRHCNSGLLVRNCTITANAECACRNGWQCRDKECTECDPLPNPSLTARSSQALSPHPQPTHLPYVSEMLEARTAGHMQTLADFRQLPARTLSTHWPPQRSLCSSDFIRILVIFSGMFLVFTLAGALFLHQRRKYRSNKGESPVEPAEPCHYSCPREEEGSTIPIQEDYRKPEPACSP
Procedure, shortened: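 CHO cells stably expressing human CTLA-4 mixed with CD27-expressing CHO cells, then incubated with 10 μg/mL mAb for 30 min at 4 °C. Bound mAb detected with PE anti-human IgG Fc, CD27 cells gated by FITC anti-CD27; cells fixed in 4% paraformaldehyde before flow cytometry.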

binding result	Binder
no binding (tested: 10 µg/mL)	B1
no binding (tested: 10 µg/mL)	B2
no binding (tested: 10 µg/mL)	B3

The binders below were run against T4, His-tagged cynomolgus CTLA-4 (CT4-C5227; Acro Biosystems) (cynomolgus, UniProt G7PL88 36-161) (assay: BLI (Octet), single antigen concentration).
T4 construct: also called soluble cynomolgus CTLA-4; cyno CTLA-4
T4 sequence (G7PL88 entry or part of it limits assumed, form in doubt): as the sequence (P16410 36-161 limits assumed) above, with S14N, I18T, L106M counted along it
Protocol: Table 23. In vitro characterization of scFvs reformatted as full-length antibodies. kon, koff, and KD of the indicated CTLA-4 mAbs for soluble human CTLA-4 was determined by SPR (Carterra). Geometric MFI of the indicated CTLA-4 mAbs bound to CTLA-4⁺ or CD27⁺ CHO cells as detected by a secondary human IgG antibody and flow cytometry. Affinity (KD) of the indicated CTLA-4 mAbs for soluble cynomolgus CTLA-4 was determined by a single antigen concentration BLI measurement (Octet). […] Due to constraints on sample size in each Promega bioassay kit, this set of aCTLA-4 mAbs was analyzed using multiple plates (plate letters correspond to Plate A-D in FIG. 20D).
Antibodies were loaded at 5 μg/mL onto Protein A biosensors that were dipped into 80 nM antigen, and kinetic constants were calculated using a monovalent model.

Kd	Binder
0.8 nM	B1
3.1 nM	B2
2.2 nM	B3

Each binder was assayed against T1, His-tagged human CTLA-4 (CT4-H5229; …) (assay: SPR (Carterra)).
Procedure, shortened: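 mAb supernatants captured, at two densities, on an anti-human IgG Fc lawn. His-tagged human CTLA-4 injected at 1.95, 7.8, 31.25, 125 and 500 nM in HBS-EPC pH 7.4 with 1.0 mg/mL BSA, as a non-regenerative series with 5-min association and 15-min dissociation. Double-referenced data fitted for ka, kd and KD.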

Kd	koff	kon	Binder
5.7 nM	0.00036 s⁻¹	64000 M⁻¹ s⁻¹	B1
5.1 nM	0.00052 s⁻¹	100000 M⁻¹ s⁻¹	B2
4.6 nM	0.00042 s⁻¹	90000 M⁻¹ s⁻¹	B3

Source: US20230265192A1 (GIGAGEN, published 2023)
